The values below come from US20240287172A1 (SCIRHOM, published 2024).

T1: hiR1-FL-WT-T7 (human, UniProt Q96CC6 1-855)
T1 construct: on MEF-DKO cells
T1 sequence: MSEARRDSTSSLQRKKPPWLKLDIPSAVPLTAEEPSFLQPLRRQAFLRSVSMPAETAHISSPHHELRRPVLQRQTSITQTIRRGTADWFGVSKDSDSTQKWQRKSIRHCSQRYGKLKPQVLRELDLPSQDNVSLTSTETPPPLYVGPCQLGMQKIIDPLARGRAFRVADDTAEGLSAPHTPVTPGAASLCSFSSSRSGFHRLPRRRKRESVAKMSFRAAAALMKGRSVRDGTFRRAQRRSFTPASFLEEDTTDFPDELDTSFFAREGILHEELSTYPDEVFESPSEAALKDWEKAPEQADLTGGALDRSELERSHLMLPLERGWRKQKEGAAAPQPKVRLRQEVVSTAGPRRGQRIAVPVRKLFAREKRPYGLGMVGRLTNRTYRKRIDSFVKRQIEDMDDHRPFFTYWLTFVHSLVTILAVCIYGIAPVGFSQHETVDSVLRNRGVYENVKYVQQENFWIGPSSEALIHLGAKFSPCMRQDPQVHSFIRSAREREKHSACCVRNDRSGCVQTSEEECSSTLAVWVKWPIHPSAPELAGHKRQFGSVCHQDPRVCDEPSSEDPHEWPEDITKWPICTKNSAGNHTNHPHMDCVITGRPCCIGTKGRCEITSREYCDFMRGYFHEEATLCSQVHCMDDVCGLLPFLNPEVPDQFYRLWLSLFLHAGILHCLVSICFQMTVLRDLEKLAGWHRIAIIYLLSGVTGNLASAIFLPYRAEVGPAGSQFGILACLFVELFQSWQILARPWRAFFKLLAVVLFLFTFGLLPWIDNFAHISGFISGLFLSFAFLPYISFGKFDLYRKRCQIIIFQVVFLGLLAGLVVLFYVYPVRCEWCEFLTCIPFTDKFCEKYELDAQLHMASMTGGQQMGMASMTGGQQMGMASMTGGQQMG

T2: hiR2-FL-R543Q-T7 (human, UniProt Q6PJF5 1-856)
T2 sequence: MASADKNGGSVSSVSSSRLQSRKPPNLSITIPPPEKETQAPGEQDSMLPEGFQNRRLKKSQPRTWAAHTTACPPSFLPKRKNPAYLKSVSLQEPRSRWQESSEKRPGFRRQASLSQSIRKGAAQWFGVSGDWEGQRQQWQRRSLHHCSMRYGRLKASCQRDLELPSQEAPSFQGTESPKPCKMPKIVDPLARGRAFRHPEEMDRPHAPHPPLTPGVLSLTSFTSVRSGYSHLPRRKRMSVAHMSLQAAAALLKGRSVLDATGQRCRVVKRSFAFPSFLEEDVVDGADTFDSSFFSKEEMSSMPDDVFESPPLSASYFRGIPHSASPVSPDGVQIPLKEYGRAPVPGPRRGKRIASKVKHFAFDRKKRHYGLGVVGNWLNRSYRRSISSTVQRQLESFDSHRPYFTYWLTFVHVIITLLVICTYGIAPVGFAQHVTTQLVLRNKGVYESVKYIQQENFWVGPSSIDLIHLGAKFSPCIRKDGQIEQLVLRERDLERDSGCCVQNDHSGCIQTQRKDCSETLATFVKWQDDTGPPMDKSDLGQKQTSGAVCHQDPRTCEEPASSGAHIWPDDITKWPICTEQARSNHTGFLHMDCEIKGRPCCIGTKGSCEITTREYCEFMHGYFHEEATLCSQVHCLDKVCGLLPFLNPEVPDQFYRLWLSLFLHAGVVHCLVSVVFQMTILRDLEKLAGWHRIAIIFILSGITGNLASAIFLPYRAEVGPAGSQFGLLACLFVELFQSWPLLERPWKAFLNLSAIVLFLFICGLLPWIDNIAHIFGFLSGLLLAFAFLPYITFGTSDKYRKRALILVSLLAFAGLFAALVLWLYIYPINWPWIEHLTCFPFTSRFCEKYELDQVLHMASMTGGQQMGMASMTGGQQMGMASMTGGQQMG

B1: antibody 16 (antibody, V domains shown)
VH: QVTLKESGPGILQPSQTLSLTCSFSGFSLSTFALGVGWIRQPSGRGLEWLAHIWWDDDKYYNPALKSRLTISKDTSKNHVFLKIANVDTADTATYYCARITTYYYGMDYWGQGTSVTVSS
VL: DIVLSQSPATLSVTPGDSVSLFCRASQSIGNHLHWYQQESHASPRLLIKYASQSISGIPSRFSGSGSGTDFTLSINSVETEDFGMYFCQQSYNWPLTFGAGTKLELK
notes: mouse IgG, kappa light chain; also called clone #16; purified antibody 16
B2: antibody 5 (antibody, V domains shown)
VH: QVTLKESGPGILQPSQTLSLTCSFSGFSLSTFGMGVGWIRQPSGKGLEWLAHIWWDDEKYYNSALKSRLTISKATSKNQAFLKIANVDTADTATYYCARISNYGSNYWYFNVWGTGTTVTVSS
VL: QVVLTQSPALMSASPGEKVTMTCSAGSSVSCMYWYQQKPGSSPRVLIYDTSNLASGVPARFTGSGSGTSYSLTISRMEAEDAASYYCQQWNSYPLTFGAGTKLELK
notes: mouse IgG, kappa light chain; also called clone #5; purified antibody 5
B3: antibody 22 (antibody, V domains shown)
VH: B2 VH with A80V
VL: B2 VL with C31Y, S84T
notes: mouse IgG, kappa light chain; also called clone #22; purified antibody 22
B4: antibody 42 (antibody, V domains shown)
VH: B2 VH with F24L, M34R, S63P, A74D, A80V, K83R, S101Q, N111D
VL: LIVLTQSPAIMSASPGEKVTMTCGATSRISYMFWYQQKPGSSPRVLIYDTSNLASGVPVRFSGSGSGTSYSLTISRVEAEDVATYYCQQWNSYPLTFGAGTKLELK
notes: mouse IgG, kappa light chain; also called clone #42; purified antibody 42
B5: antibody 43 (antibody, V domains shown)
VH: B2 VH with T3A, P42S, H52N, E58D, S63P, A74D, T75A, S101G, N111D
VL: B4 VL with L1Q, K18R, G24S, T26N, F33Y, V45L, V77M, V82A, Y86N, N91S
notes: mouse IgG, kappa light chain; also called clone #43; purified antibody 43
B6: antibody 34 (antibody, V domains shown)
VH: QVTLKESGPGILQPSQTLSLTCSFSGFSLSTFSLGVGWIRQSSGKGLEWLAHIWWDDEKYYNPALKSRLTISKDTSKNQVFLKIANVDAADTATYYCARAYYSKSYYALDYWGQGTSVTVSS
VL: DIQMTQSPSSLSASLGERVSLTCRASQEISGYLSWLQQKPDGTIKRLIYAASTLDSGVPKRFSGSRSGSDYSLAISSLESEDFADYYCLQYANFPFTFGSGTKLEIK
notes: mouse IgG, kappa light chain; also called clone #34; purified antibody 34

Residue numbers refer to the chain shown, from its start.

For one assay, the target named is T1, hiR1-FL-WT-T7. The assay can be described thus: FACS on MEF-DKO cells.
With B1, the binding result was “no binding (tested: 3 µg/ml)”. In the case of B2, the binding result is given as “no binding (tested: 3 µg/ml)”.

As to B3, the binding result was “no binding (tested: 3 µg/ml)”.

The next assay deals with T2, hiR2-FL-R543Q-T7. Briefly: FACS on MEF-DKO cells.
Turning to B2, the binding result was “no binding (tested: 3 µg/ml)”. Consider B4, for which the binding result is given as “no binding (tested: 3 µg/ml)”. For B5, the binding result was “no binding (tested: 3 µg/ml)”. On the same count and under the same terms, for B6 the value was “no binding (tested: 3 µg/ml)”.
